System: K4 kissing-loop RNA reporter
Assay: apparent KD of K4 kissing-loop reporter; higher = weaker reporter binding
Details: Eterna round: R107
Protocol: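 RNA-MaP round R107: designed RNA switches with theophylline, tryptophan, arginine or FMN aptamers are transcribed on-chip within common flanks. They are titrated with a labelled K4 kissing-loop RNA reporter in RNA-MaP buffer (100 mM Tris pH 7.5, 80 mM KCl, 4 mM MgCl2), without ligand or with the indicated ligand. Median apparent KD per design.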

[1] = input ligand: theophylline 20 uM
[2] = input ligand: tryptophan 2.4 mM
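Note: bound reporter read as fluorescence of individual clusters on recovered sequencing chips by microscopy, with normalized cluster intensities fitted with a binding model.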

Sequence | apparent KD of K4 kissing-loop reporter (input ligand: FMN 200 uM) [nM] | apparent KD of K4 kissing-loop reporter (input ligand: arginine 13.2 mM) [nM] | apparent KD of K4 kissing-loop reporter (input ligand: none) [nM] | apparent KD of K4 kissing-loop reporter [1] [nM] | apparent KD of K4 kissing-loop reporter [2] [nM]
CCGUCGACAAGCGCCAUCGUCUACGUCAAUAAGGAUAUCAUCAAGGUGAGAAGGUAUGACAACCGGAGUGAUGUUCCAGGGCGAA [theeternabot_sameState_KL_FMN_A_5] | 506 | 362 | 368 | 304 | 346
CCUAUCUCAUACGAUACCAGUCCGAGUGAUGUUCGAACAGGUUUUAGUUUGCCAUAUAAUGACCCUUGGCAGCGUAUGGGAUAGG [Ex Theophylline B K4 13] | 167 | 123 | 163 | 130 | 137
CCUGCAGCUGUUACCGAGGGAUGCUACGGACGAGGACCGGUACGGCCGCCACUCGCCAGUGAUGUUGGUGAGGGAGGACGUUACU [KL-XTryp-A21] | 137 | 107 | 109 | 103 | 107
CCUGUGUGUGAAGGAUAUAUUUCGCAUUAAAACUAGUGAUGUUGGUAAAUGGCACAAUCCGUAGCAAUAGAAGGUCACUCCGGAA [theeternabot_sameState_KL_FMN_B_22] | 499 | 445 | 793 | 498 | 524
CCUUCCUAAAACGAUACCAGUUUCUAUCCUCAAUCCAGUGAUGUUGAAUUGAGCUCACAGAACCCUUGGCAGCGUCGCUAUACGG [theeternabot_sameState_KL_Theo_B_39] | 214 | 202 | 195 | 180 | 190
CCUUCUCUUGAUAGUGAUGUUAUCAAGGGCAAGGAUAUCAUCUUAAUGAGAAGGUGUCCUUGAUAACAUGGAGGUCUGAAACAGA [Omei KL FMN A Exc C v5] | 108 | 186 | 229 | 321 | 335
CGACACUCAGCGGCCGCCACUGAGCUAUAUUUUGCAGGUGCCCGAGUAAGUGAUGUUUACUUCGUCAGGACCGGGCUGGUUUCAA [theeternabot_sameState_KL_Trp_B_20] | 514 | 298 | 609 | 294 | 351
CGAGUGAUGUUCGAAGAGUUGUUAAGCGAUACCAGCUAGGAAACUGGCCCUUGGCAGCGUAAUAAGUAAAUAAAUAAAUGAUCAC [whbob_Ex_Theo_A_th63] | 287 | 399 | 442 | 486 | 337
CGAGUGAUGUUCGAAGAGUUGUUAAGCGAUACCAGCUAGGAGACUGGCCCUUGGCAGCGUAAUAAGUUAAUAAAUAAAUGAUCAC [whbob_Ex_Theo_A_th65] | 293 | 384 | 360 | 506 | 285
CGAGUGAUGUUCGUUCGUUUAUUUCUUUGACAGGAUAUGCGGAAACGCAGAAGGGUCACCUUUGAGUUAAAGGAAUUUACGUUAU [Ex FMN A 26] | 572 | 509 | 599 | 539 | 483
CGAGUGAUGUUCGUUUUAAAAUUUUUUUGACAGGAUAUGCGGAAACGCAGAAGGGUCACCUUUGAGUUAAAAGAAAUUAAAUUUU [Ex FMN 16] | 175 | 223 | 198 | 224 | 166
CGAUGGAUGGCAGGAUAUAGACAUUGAGUGAUGUUCGAUGAUUAUCCAUAUUCCCGUCACCUAUGACUAGAAGGGCCAUCCAUCG | 236 | 485 | 464 | 587 | 577
CGCAAAUCGUCGGCCGCCACUGCAUUUGAACGCUAAUUGUCUCUGCGCGGAGUGAUGUUCUGUGCCAGGACCGGGACGGAUUUCG [theeternabot_exclusion_KL_Trp_B_21] | 446 | 381 | 517 | 499 | 146
CGCAAGCAGCCAGUGAUGUUGGCCGCCUUGCGAGGACCGGUACGGCCGCCACUCGAAGGCGGCUACUGGUAAUCCGUCUAACGGA [Lareus] | 84.6 | 80.9 | 86.8 | 68.4 | 89.9
CGCAGUGAUGUUGCGAGUAACUACAGGGAAGGAGCGUGCUAAAGCACAGGUAGGUCGCCCAUGCAGUGAUGUUGUGUAAAAGGGU [Excluson Arginine A GF 13] | 102 | 98.6 | 106 | 118 | 90.8
CGCAGUGAUGUUGCGAGUAGCUACAGGGAAGGAGCGCUCUAGUGAGCAGGUAGGUCGCCCACGCAGUGAUGUUGCGUCAUAGGGU [Exclusion Arg A GF9] | 116 | 110 | 113 | 113 | 101
CGCAGUGAUGUUGCGAGUAGCUACAGGGAAGGAGCGUGCUAGAGCACAGGUAGGUCGCCCAGUGGCAGUGAUGUUGCCAACGGGU [Exclusion ARginine A GF 18] | 132 | 110 | 110 | 104 | 109
CGCGCGCGCGCGCGCGCGCGCGAAAAUGAUACCAGUAUAUAAGAAUACCCUUGGCAGCAUAAGAAAGAUAUAGUGAUGUUGUAUA [SSTheophA.A] | 212 | 76.5 | 279 | 316 | 161
CGCGCUGCCUGAGGAUAUAGAAACGAGUGAUGUUCGUGGACAAGAGCCAGUGAUGUUGGGUUAUUUCUAGAAGGCAGGCGAUCGU [Exclusion FMN B GF5] | 124 | 106 | 128 | 125 | 97.5
CGCUGGGCGAGUGAUGUUCGCUCACGUGAUACCAGUGCCAUCCAACACCCUUGGCAGCACGCGGGCAGUGAUGUUGUCCUUGUGG [Exclusion Theophylline A GF7] | 284 | 241 | 285 | 269 | 268
CGGAGUGAUGUUCCGUUAAUUCCUUAGUUACGAGGACCGGUACGGCCGCCACUCGAUUUUAGUUUUAUUUAUUGUUUGGAAAUUU [JR_SSTryptoA_Sub008] | 253 | 268 | 290 | 327 | 113
